From patent US20090137484A1, “Neuronal Network-Interacting Peptide” (NATIONAL UNIVERSITY OF SINGAPORE, priority 2004, published 2009)
Where a SMILES comes first, the peptide text is derived from it. Where no end group is shown, it is not given here.

T1: Grb4 SH3_3 (third SH3 domain, Grb4 residues 199-257) (Homo sapiens, UniProt O43639)
T1 construct: corresponding to the human Grb4 residues 5-61; 115-171 and 199-257 respectively; His-tag; made in house; host or cells: E. coli BL21
T1 sequence (O43639 199-257): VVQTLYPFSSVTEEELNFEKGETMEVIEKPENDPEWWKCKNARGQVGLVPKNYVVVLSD

T2: Grb4 SH3_3 (third SH3 domain, Grb4 residues 199-257) (Homo sapiens, UniProt O43639)
T2 construct: corresponding to the human Grb4 residues 5-61; 115-171 and 199-257 respectively; His-tag; made in house; host or cells: E. coli BL21
T2 sequence (O43639 198-256): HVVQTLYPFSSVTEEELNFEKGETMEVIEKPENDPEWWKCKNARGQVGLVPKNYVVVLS

T3: Grb4 SH3_2 (second SH3 domain, Grb4 residues 115-170) (Homo sapiens, UniProt O43639)
T3 construct: corresponding to the human Grb4 residues 5-61; 115-171 and 199-257 respectively; His-tag; made in house; host or cells: E. coli BL21
T3 sequence (O43639 115-171): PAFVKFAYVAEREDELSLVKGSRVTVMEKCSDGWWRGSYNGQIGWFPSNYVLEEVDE

T4: Grb4 SH3_23 (second and third SH3 domains, Grb4 residues 115-257) (Homo sapiens, UniProt O43639)
T4 construct: Grb4 (115-257) containing the second and third SH3 domains were expressed; His-tag; made in house; host or cells: E. coli BL21
T4 sequence (O43639 115-257): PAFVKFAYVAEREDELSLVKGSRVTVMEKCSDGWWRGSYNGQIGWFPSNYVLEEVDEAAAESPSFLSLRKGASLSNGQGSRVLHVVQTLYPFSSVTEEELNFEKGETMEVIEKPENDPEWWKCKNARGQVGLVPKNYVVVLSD

B1: third Grb4 SH3 domain, Grb4 residues 199-257 (other, human, UniProt O43639 199-257, looked up)
chain: T1 sequence (O43639 199-257)
modifications: also: His-tag, sequence and removal not given here, 15N-labelled
notes: range 199-257; Expressed in E. coli as a His-tagged protein; It was 15N-labelled for NMR; also called SH3_3
B2: Nogo-A (32-200) (other)
chain: EDEEEEEEEEEEDEDEDLEELEVLERKPAAGLSAAPVPTAPAAGAPLMDFGNDFVPPAPRGPLPAAPPVAPERQPSWDPSPVSSTVPAPSPLSAAAVSPSKLPEDDEPPARPPPPPPASVSPQAEPVWTPPAPAPAAPPSTPAAPKRRGSSGSVDETLFALPAASEPVI
notes: Recombinant, cloned into pET32a and expressed in E. coli
B3: Nogo-A (171-181) Ac-STPAAPKRRGS-NH2 (peptide)
peptide: Ac-STPAAPKRRGS-NH2
notes: Chemically synthesised by the Fmoc method; also called 11-residue Nogo-A (171-181) peptide
B4: Nogo-A (1-200): recombinant N-terminal fragment of human Nogo-A, residues 1-200, expressed in E. coli (protein)
chain: MEDLDQSPLVSSSDSPPRPQPAFKYQFVREPEDEEEEEEEEEEDEDEDLEELEVLERKPAAGLSAAPVPTAPAAGAPLMDFGNDFVPPAPRGPLPAAPPVAPERQPSWDPSPVSSTVPAPSPLSAAAVSPSKLPEDDEPPARPPPPPPASVSPQAEPVWTPPAPAPAAPPSTPAAPKRRGSSGSVDETLFALPAASEPVI

Assays:
[1] = target: T1, Grb4 SH3_3 (third SH3 domain, Grb4 residues 199-257); test: 1H-15N NMR HSQC titration of Nogo fragments with Grb4 SH3_3; assay type: binding; conditions: two-fold excess of the peptide (FIG. 1b)
Method: (§1) All calorimetric titrations were performed on a Microcal VP ITC machine (Microcal, USA). The protein/peptide samples were dissolved in the 50 mM Tris buffer (pH 7.0), with 3 mM 2-mercaptoethanol. After centrifugation for 15 min, the samples were degassed for 15 min to avoid the bubble formation. The Grb4 SH3 samples with a concentration of 0.025 or 0.05 mM were placed in the 1.4 ml reaction cell and 1.0 mM Nogo samples were loaded into the […] injection syringe. All titrations were performed at 25° C. and the obtained data was fitted using the ORIGIN software (Originlab Corporation). NMR experiments were performed on a 500 MHz Bruker DRX spectrometer equipped with an actively shielded cryoprobe and an 800 MHz Bruker Avance spectrometer (Sattler, M., et al., (1999) Prog. NMR Spectrosc. 34, 93-158.). NMR data was processed with NMRPipe (Delaglio, F et al., (1995) J. Biomol. NMR 6, 277-293) and analysed with NMRView (Johnson, B. A. & Blevins, R. A. (1994). J. Biomol. NMR 4, 603-614.).
(§2) The ^1H-^15N HSQC titration experiments were conducted according to our previous procedure (Song J. (2003) J Biol Chem. 278, 24714-20). […]
To further validate the identified binding interaction, we determined the solution structure of the third Grb4 SH3 domain by use of heteronuclear tripleresonance NMR methodology as described briefly in Examples 1 and 2. […]

[2] = target: T2, Grb4 SH3_3 (third SH3 domain, Grb4 residues 199-257); test: Isothermal titration calorimetry of Nogo fragments with Grb4 SH3_3; assay type: binding
Method: as §1
Both Nogo-A (1-200) and Grb4 (115-257) were further dissected into different Nogo fragments and two different […] domains based on sequence alignment as detailed in Table 1 and the interactions among them were studied first by NMR HSQC titration followed by isothermal titration calorimetry (ITC) to obtain thermodynamic parameters of the binding interaction. As presented in Table 2, two complete sets of thermodynamic parameters were derived from ITC measurements, one set for the interaction between Nogo-A (32-200) and the third Grb4 SH3 domain and another set for the interaction between the 11-residue Nogo-A (171-181) and the third Grb4 SH3 domain. […] Many factors account for this observation. One possibility is that in the Nogo-A (32-200) protein, this 11-residue binding region is less accessible. Alternatively, the presence of other regions without any significant contribution to the binding will unavoidably reduce the binding affinity.

[3] = target: T3, Grb4 SH3_2 (second SH3 domain, Grb4 residues 115-170); test: 1H-15N NMR HSQC titration of Nogo fragments with Grb4 SH3_2; assay type: binding; conditions: for Binding detected by NMR: Grb4 fragment SH3_2
Method: as §1
The ^1H-^15N HSQC titration experiments were conducted according to our previous procedure (Song J. (2003) J Biol Chem. 278, 24714-20). For structure determination, backbone sequential assignments were achieved by analysing HNCACB, CBCA(CO)NH, HNCO experiments while side chain assignments were obtained from (H)CC(CO)NH, H(CCO)NH, HCCH-TOCSY, ^15N-edited TOCSY-HSQC and NOESY-HSQC. Structure determination of the third Grb4 SH3 domain was conducted by a standard CNS (Crystallography and NMR System) protocol as described in our previous publication (Li M, et al., 2004, Eur J. Biochem. 271, 3512-22) with NOE constraints derived from ^15N- and ^13C-NOESY spectra and dihedral angle constraints from TALOS prediction using 5 different chemical shifts. The accepted NMR structure with the lowest energy was selected for analysis and manipulation to generate FIG. 1 by use of MolMol graphic software (Koradi, R., et al., (1996) J. Mol. Graphics. 14, 51-55.). […]

[4] = target: B2; test: ITC at 25 C, Nogo in syringe, SH3_3 (25 µM) in cell, Tris pH 7.0; design: ΔS: unit not given here
Method: as §1

[5] = target: T4, Grb4 SH3_23 (second and third SH3 domains, Grb4 residues 115-257); test: Isothermal titration calorimetry of Nogo fragments with Grb4 SH3_23; assay type: binding; conditions: Grb4 fragment SH3_23
Method: as §1
(§3) Both Nogo-A (1-200) and Grb4 (115-257) were further dissected into different Nogo fragments and two different […] domains based on sequence alignment as detailed in Table 1 and the interactions among them were studied first by NMR HSQC titration followed by isothermal titration calorimetry (ITC) to obtain thermodynamic parameters of the binding interaction. […]

[6] = target: T3, Grb4 SH3_2 (second SH3 domain, Grb4 residues 115-170); test: Isothermal titration calorimetry of Nogo fragments with Grb4 SH3_2; assay type: binding; conditions: Grb4 fragment SH3_2
Method: as §1, §3

[7] = target: B1; test: ITC at 25 C, Nogo in syringe, SH3_3 (25 µM) in cell, Tris pH 7.0; design: ΔS: unit not given here
Method: as §1

[8] = target: B1; test: ITC, comparison of the two sets of Table 2
Method: as §1

[9] = target: B1; test: ITC at 25 C, peptide in syringe, SH3_3 (50 µM) in cell, Tris pH 7.0; design: ΔS: unit not given here
Method: as §1

[10] = target: T4, Grb4 SH3_23 (second and third SH3 domains, Grb4 residues 115-257); test: 1H-15N NMR HSQC titration of Nogo fragments with Grb4 SH3_23; assay type: binding; conditions: four-fold excess of unlabelled Nogo protein; pH 6.8, 20° C. (FIG. 2)
Method: as §1, §2
The present inventors also determined whether a cross-talk existed between Nogo and Eph receptor-ephrinB mediated signalling networks, and whether Grb4 was the convergence point. […]

[11] = ITC at 25° C., Tris pH 7.0, Nogo in syringe, SH3_3 in cell (25 or 50 μM)

## CC(=O)N[C@@H](CO)C(=O)N[C@H](C(=O)N1CCC[C@H]1C(=O)N[C@@H](C)C(=O)N[C@@H](C)C(=O)N1CCC[C@H]1C(=O)N[C@@H](CCCCN)C(=O)N[C@@H](CCCNC(=N)N)C(=O)N[C@@H](CCCNC(=N)N)C(=O)NCC(=O)N[C@@H](CO)C(N)=O)[C@@H](C)O [Nogo-A (171-181), Ac-STPAAPKRRGS-NH2] (Ac-STPAAPKRRGS-NH2)
[1]
  HSQC peaks of the 15N-labeled third SH3 domain undergoing a significant shift: ~50%
[2]; [11]
  Ka: 357000 ± 21000 M⁻¹
  Kd: 2.8 µM
  Stoichiometry n: 0.95 ± 0.068
  ΔH: −3,310 ± 499 cal/mol
  ΔS: 14.3 cal/(mol·K)
[2]; higher than Nogo-A (32-200)
  Binding affinity to the third Grb4 SH3 domain relative to Nogo-A (32-200): about 30 fold
[3]
  Binding with the second Grb4 SH3 domain (specificity statement): no significant binding

## Ac-ARPPPPPPAS-NH2 [Nogo-A (141-150), chemically synthesised peptide, fragment 141-150 of Nogo A]
[2]; Grb4 fragment SH3_3
  Binding detected by ITC: Very weak

## B1
[4]
  Ka: 11500 M⁻¹
  Kd: 87 µM

## B2
[5]
  Binding detected by ITC: Very weak
[6]
  Binding detected by ITC: Very weak
[7]
  Stoichiometry n: 1.13
  ΔH: 69.6 kcal/mol
  ΔS: 252
[2]; [11]
  Ka: 11500 ± 2200 M⁻¹
  Kd: 87 µM
[3]
  Binding detected by NMR: Very weak

## B3
[8]
  fold higher binding affinity than Nogo-A (32-200): ~30 fold
[9]
  Ka: 357000 M⁻¹
  Stoichiometry n: 0.95
  ΔH: -3.31 kcal/mol
  ΔS: 14.3

## B4
[10]
  Shifts of HSQC peaks of 15N-labeled Grb4 (115-257): significant shifts of the HSQC peaks
[3]
  Binding detected by NMR: Very weak
